Patent publication US20210230279A1 (University of California, published 2021)

Legend:
[1] = molecular target: T1, recombinant human integrin αvβ6 (human, UniProt P18564 22-707); assay: ELISA: integrin coated on plate, supernatant of transfected 293 cells at 1/10 dilution, anti-mouse IgG-HRP; score normalized to expression;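 note: scale runs from 0 (no apparent binding) to 4 (robust binding), with scores adjusted for clone protein expression as determined by a murine IgG ELISA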
T1 construct: also called αvβ6 (R&D systems); αvβ6 receptor
T1 sequence (chain, as listed by the source limits assumed, chain 1 of 2): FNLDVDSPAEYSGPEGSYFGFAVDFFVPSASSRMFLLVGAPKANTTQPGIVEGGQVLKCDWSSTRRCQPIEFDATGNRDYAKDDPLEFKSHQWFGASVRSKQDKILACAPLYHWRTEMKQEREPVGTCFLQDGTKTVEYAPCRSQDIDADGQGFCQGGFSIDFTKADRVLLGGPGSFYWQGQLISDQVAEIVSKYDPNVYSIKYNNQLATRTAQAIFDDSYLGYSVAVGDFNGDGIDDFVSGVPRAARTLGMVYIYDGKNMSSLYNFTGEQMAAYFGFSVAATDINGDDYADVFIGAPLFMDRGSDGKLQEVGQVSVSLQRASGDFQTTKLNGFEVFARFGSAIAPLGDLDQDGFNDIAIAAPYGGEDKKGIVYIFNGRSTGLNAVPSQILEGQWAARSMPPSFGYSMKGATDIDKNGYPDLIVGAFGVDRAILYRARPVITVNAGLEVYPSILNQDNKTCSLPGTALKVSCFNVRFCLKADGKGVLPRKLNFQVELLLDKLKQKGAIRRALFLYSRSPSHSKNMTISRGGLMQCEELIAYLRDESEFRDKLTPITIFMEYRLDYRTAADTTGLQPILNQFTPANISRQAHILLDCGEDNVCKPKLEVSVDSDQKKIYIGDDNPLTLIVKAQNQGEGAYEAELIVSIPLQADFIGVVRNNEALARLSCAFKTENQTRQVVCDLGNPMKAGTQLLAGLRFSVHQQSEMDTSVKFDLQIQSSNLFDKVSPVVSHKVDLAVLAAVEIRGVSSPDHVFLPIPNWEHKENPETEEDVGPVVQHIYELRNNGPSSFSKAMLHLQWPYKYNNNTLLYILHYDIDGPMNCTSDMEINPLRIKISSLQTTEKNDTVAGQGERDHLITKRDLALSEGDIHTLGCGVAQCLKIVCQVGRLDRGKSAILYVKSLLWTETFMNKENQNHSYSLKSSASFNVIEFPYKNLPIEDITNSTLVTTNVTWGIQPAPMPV
T1 sequence (P18564 22-707 limits assumed, chain 2 of 2): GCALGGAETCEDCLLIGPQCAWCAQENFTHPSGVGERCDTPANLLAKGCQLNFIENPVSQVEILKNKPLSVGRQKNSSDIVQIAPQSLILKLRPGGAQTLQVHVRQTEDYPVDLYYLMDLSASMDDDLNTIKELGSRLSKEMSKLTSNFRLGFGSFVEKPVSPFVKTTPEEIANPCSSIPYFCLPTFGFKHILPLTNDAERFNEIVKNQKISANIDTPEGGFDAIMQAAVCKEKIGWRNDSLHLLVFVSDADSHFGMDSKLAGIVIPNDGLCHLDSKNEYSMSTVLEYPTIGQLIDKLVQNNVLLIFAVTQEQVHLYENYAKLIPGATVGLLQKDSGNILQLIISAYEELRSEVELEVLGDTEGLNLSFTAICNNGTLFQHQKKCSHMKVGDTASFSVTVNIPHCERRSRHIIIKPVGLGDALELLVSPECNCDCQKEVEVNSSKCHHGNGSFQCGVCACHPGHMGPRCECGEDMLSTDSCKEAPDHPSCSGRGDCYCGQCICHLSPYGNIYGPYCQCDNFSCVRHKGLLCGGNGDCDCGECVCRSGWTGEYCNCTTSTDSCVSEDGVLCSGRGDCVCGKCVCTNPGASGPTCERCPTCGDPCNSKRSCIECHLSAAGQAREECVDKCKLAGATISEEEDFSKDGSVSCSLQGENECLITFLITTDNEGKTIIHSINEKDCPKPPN
Excerpt: (§1) Binding was quantified by intensity as 0-4 (0 representing no apparent binding; 4 representing robust binding) and results normalized to expression.

[2] = molecular target: T2, recombinant human integrin αvβ5 (human, UniProt P18084 24-719); assay: ELISA on coated recombinant human integrin; 0 = no apparent binding
T2 construct: Bought; also called αvβ5 (R&D systems)
T2 sequence (chain, as listed by the source limits assumed, chain 1 of 2): as the sequence (chain, as listed by the source limits assumed, chain 1 of 2) above
T2 sequence (P18084 24-719 limits assumed, chain 2 of 2): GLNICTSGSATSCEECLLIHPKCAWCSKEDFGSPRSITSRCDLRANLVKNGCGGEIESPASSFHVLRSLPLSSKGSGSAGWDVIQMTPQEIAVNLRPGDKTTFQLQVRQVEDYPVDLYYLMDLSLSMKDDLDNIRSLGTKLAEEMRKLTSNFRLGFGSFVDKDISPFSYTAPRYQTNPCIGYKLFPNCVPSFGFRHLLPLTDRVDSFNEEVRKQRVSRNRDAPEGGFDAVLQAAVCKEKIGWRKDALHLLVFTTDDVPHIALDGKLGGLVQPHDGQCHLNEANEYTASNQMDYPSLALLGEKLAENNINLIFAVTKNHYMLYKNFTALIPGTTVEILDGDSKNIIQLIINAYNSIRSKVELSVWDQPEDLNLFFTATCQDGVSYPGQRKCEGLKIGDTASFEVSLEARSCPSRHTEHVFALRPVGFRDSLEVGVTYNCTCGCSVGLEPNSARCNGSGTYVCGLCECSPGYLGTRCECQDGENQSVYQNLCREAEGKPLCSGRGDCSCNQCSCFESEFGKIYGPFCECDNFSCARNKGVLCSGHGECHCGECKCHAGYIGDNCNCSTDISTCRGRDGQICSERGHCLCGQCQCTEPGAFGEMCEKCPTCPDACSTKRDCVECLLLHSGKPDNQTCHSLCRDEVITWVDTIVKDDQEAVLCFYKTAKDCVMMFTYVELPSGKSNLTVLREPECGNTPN
Excerpt: as §1

[3] = molecular target: T3, recombinant human integrin αvβ3 (human, UniProt P05106 27-718); assay: as above
T3 construct: Bought; also called αvβ3 (R&D systems)
T3 sequence (chain, as listed by the source limits assumed, chain 1 of 2): as the sequence (chain, as listed by the source limits assumed, chain 1 of 2) above
T3 sequence (P05106 27-718 limits assumed, chain 2 of 2): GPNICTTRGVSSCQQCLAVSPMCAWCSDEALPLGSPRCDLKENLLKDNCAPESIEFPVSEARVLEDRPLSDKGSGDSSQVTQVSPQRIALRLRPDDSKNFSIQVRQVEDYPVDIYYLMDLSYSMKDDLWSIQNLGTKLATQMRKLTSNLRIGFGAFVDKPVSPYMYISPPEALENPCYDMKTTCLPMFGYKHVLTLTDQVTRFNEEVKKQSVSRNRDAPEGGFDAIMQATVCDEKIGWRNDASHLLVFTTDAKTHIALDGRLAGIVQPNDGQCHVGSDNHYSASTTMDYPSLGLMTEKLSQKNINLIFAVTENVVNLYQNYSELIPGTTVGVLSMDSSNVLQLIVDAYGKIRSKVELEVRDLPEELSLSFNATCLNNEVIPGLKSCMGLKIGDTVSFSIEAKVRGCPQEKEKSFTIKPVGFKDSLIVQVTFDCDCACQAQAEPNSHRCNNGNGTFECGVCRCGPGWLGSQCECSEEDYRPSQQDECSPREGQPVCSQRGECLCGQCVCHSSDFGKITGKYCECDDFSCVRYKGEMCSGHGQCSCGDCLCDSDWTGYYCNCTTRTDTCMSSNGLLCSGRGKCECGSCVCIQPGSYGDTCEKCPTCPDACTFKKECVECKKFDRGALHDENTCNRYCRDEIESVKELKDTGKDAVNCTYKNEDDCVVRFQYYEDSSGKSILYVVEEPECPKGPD
Excerpt: as §1

[4] = molecular target: T4, recombinant human integrin αvβ8 (human, UniProt P06756 31-992; P26012 43-684); assay: as above
T4 construct: also called Human Integrin alpha V beta 8; purified recombinant αvβ8
T4 sequence (P06756 31-992 limits assumed, chain 1 of 2): as the sequence (chain, as listed by the source limits assumed, chain 1 of 2) above
T4 sequence (P26012 43-684 limits assumed, chain 2 of 2): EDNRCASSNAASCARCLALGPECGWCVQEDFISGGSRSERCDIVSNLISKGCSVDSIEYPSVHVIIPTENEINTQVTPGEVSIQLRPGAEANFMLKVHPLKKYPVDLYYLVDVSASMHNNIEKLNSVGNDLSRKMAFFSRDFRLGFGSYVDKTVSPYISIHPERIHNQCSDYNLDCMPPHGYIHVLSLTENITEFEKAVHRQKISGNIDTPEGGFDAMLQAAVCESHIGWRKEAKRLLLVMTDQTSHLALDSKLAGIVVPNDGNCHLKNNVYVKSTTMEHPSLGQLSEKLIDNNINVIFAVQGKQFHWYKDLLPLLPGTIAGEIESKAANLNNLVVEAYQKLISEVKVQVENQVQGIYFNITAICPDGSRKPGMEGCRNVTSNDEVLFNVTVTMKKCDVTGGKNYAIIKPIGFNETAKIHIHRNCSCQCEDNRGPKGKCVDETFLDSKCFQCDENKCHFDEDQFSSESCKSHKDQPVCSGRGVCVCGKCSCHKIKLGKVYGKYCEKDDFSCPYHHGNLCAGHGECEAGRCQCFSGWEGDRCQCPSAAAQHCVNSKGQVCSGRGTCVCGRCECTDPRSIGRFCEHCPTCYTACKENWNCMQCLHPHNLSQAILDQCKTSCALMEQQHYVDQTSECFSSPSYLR
Excerpt: as §1

[5] = molecular target: T5, recombinant human integrin αvβ1 (human, UniProt P05556 21-728); assay: as above
T5 construct: Bought; also called αvβ1 (R&D systems)
T5 sequence (chain, as listed by the source limits assumed, chain 1 of 2): as the sequence (chain, as listed by the source limits assumed, chain 1 of 2) above
T5 sequence (P05556 21-728 limits assumed, chain 2 of 2): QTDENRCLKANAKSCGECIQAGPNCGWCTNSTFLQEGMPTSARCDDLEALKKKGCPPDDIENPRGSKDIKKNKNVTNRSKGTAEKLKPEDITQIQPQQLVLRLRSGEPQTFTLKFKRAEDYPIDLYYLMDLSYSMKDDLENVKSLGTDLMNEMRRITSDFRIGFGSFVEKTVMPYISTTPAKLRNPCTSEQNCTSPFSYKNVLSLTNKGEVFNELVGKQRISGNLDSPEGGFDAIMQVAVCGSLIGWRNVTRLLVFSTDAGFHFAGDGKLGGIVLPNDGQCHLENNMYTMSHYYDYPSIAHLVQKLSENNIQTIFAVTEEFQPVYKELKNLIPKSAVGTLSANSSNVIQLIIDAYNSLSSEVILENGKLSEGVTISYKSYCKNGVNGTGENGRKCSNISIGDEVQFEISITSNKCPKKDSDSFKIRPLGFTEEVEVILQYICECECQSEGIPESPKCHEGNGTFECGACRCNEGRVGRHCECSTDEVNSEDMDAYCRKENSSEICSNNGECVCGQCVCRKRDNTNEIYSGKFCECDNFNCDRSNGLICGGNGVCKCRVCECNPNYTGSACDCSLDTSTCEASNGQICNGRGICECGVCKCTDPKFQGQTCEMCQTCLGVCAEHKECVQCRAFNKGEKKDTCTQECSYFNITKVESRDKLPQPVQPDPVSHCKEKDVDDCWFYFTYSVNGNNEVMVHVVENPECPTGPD
Excerpt: as §1

[6] = molecular target: T4, recombinant human integrin αvβ8; assay: scFv yeast display selection
[7] = molecular target: T4, recombinant human integrin αvβ8; assay: ELISA: integrin coated on plate, supernatant of transfected 293 cells at 1/10 dilution, anti-mouse IgG-HRP; score normalized to expression;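 note: scale runs from 0 (no apparent binding) to 4 (robust binding), with scores adjusted for clone protein expression as determined by a murine IgG ELISA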
Excerpt: as §1

[8] = molecular target: T3, recombinant human integrin αvβ3; assay: as above
Excerpt: as §1

Binder	binding intensity score (0-4) [1] [score 0-4]	binding result [2]	binding result [3]	binding result [4]	binding result [5]	binding result [6]	binding intensity score (0-4) [7] [score 0-4]	binding intensity score (0-4) [8] [score 0-4]
C6 VH / RGD3-10 Vk murine IgG (antibody, V domains shown, Murine IgG, supernatant of 293 cells; CDRL1 swap into the C6D4 murine IgG vector, VH not altered; also called C6RGD3-10) VH: QIQLLQSGPELKKPGETVKISCKASGYTFTDYSMHWVKQAPGKGLKWVARINTETGEPTFADDFRGRFAVSLETSASTAYLQINNLKNEDTATYFCAIFYYGRDSWGQGTTLTVSS VL: DIVMTQSPSSLAVSAGEKVTMSCKSSQSLLGRGDLGRLKKQKDHWYQQKPGQSPRLLIYWASTRESGVPDRFTGSGSGTDFTLTISSVQAEDLAVYYCKQSYNLLSFGAGTKLELKR	1	no binding (tested: supernatant at 1/10 dilution)	no binding (tested: supernatant at 1/10 dilution)	no binding (tested: supernatant at 1/10 dilution)	no binding (tested: supernatant at 1/10 dilution)			
clone 29 (scFv, yeast display) (scFv, V domains shown, scFv on yeast) VH: QIQLLQSGPELKKPGETVKISCKASGYTFTDYSMHWVKQAPGKGLKWVARINTETGEPTFADDFRGRFAVSLETSASTAYLQINNLKNEDTATYFCAIYYYGRDSWGQGTTLTVSS VL: DIVMSQSPSSLAVSAGEKVTMSCKSSQSLLNSRTRKNYLAWYQQKPGQSPRLLIYWASTRESGVPDRFTGSGSGTDFTLTISSVQAEDLAVYYCKQSYNLLTFGAGTKLELKA						binds		
clone 44 (scFv, yeast display) (scFv, V domains shown, scFv on yeast) VH: QIQLLQSGPELKKPGETVKISCKASGYTFTDYSMHWVKQAPGKGLKWVARINTETGEPTFADDFRGRFAVSLETSASTAYLQINNLKNEDTATYFCAIYYYGRDSWGQGTTLTVSS VL: DIVMSQSPSSLAVSAGEKVTMSCKSSQSLLNSRTRKNYLAWYQQKPGQSPRLLIYWASTRESGVPDRFTGSGSGTDFTLTISSVQDEDLAVYYCKQSYNLLTFGAGTKLELKA						binds		
C6 VH / RGD3-3 Vk murine IgG (antibody, V domains shown, Murine IgG, supernatant of 293 cells; CDRL1 swap into the C6D4 murine IgG vector, VH not altered; also called C6RGD3-3) VH: QIQLLQSGPELKKPGETVKISCKASGYTFTDYSMHWVKQAPGKGLKWVARINTETGEPTFADDFRGRFAVSLETSASTAYLQINNLKNEDTATYFCAIFYYGRDSWGQGTTLTVSS VL: DIVMTQSPSSLAVSAGEKVTMSCKSSQSLLGRGDLGRLKKQKNALAWYQQKPGQSPRLLIYWASTRESGVPDRFTGSGSGTDFTLTISSVQAEDLAVYYCKQSYNLLSFGAGTKLELKR	4	no binding (tested: supernatant at 1/10 dilution)	no binding (tested: supernatant at 1/10 dilution)		no binding (tested: supernatant at 1/10 dilution)		4	
C6 VH / RGD3-4 Vk murine IgG (antibody, V domains shown, Murine IgG, supernatant of 293 cells; CDRL1 swap into the C6D4 murine IgG vector, VH not altered; also called C6RGD3-4) VH: QIQLLQSGPELKKPGETVKISCKASGYTFTDYSMHWVKQAPGKGLKWVARINTETGEPTFADDFRGRFAVSLETSASTAYLQINNLKNEDTATYFCAIFYYGRDSWGQGTTLTVSS VL: DIVMTQSPSSLAVSAGEKVTMSCKSSQSLLGRGDLGRLKKQNALAWYQQKPGQSPRLLIYWASTRESGVPDRFTGSGSGTDFTLTISSVQAEDLAVYYCKQSYNLLSFGAGTKLELKR	4	no binding (tested: supernatant at 1/10 dilution)	no binding (tested: supernatant at 1/10 dilution)		no binding (tested: supernatant at 1/10 dilution)		4	
C6 VH / RGD3-9 Vk murine IgG (antibody, V domains shown, Murine IgG, supernatant of 293 cells; CDRL1 swap into the C6D4 murine IgG vector, VH not altered; also called C6RGD3-9) VH: QIQLLQSGPELKKPGETVKISCKASGYTFTDYSMHWVKQAPGKGLKWVARINTETGEPTFADDFRGRFAVSLETSASTAYLQINNLKNEDTATYFCAIFYYGRDSWGQGTTLTVSS VL: DIVMTQSPSSLAVSAGEKVTMSCKSSQSLLGRGDLGRLKKQKDHHWYQQKPGQSPRLLIYWASTRESGVPDRFTGSGSGTDFTLTISSVQAEDLAVYYCKQSYNLLSFGAGTKLELKR	3	no binding (tested: supernatant at 1/10 dilution)	no binding (tested: supernatant at 1/10 dilution)	no binding (tested: supernatant at 1/10 dilution)	no binding (tested: supernatant at 1/10 dilution)			
C6 VH / RGD3-6 Vk murine IgG (antibody, V domains shown, Murine IgG, supernatant of 293 cells; CDRL1 swap into the C6D4 murine IgG vector, VH not altered; also called C6RGD3-6) VH: QIQLLQSGPELKKPGETVKISCKASGYTFTDYSMHWVKQAPGKGLKWVARINTETGEPTFADDFRGRFAVSLETSASTAYLQINNLKNEDTATYFCAIFYYGRDSWGQGTTLTVSS VL: DIVMTQSPSSLAVSAGEKVTMSCKSSQSLLGRGDLGRLKNALAWYQQKPGQSPRLLIYWASTRESGVPDRFTGSGSGTDFTLTISSVQAEDLAVYYCKQSYNLLSFGAGTKLELKR	4	no binding (tested: supernatant at 1/10 dilution)	no binding (tested: supernatant at 1/10 dilution)		no binding (tested: supernatant at 1/10 dilution)		4	
C6 VH / RGD3-11 Vk murine IgG (antibody, V domains shown, Murine IgG, supernatant of 293 cells; CDRL1 swap into the C6D4 murine IgG vector, VH not altered; also called C6RGD3-11) VH: QIQLLQSGPELKKPGETVKISCKASGYTFTDYSMHWVKQAPGKGLKWVARINTETGEPTFADDFRGRFAVSLETSASTAYLQINNLKNEDTATYFCAIFYYGRDSWGQGTTLTVSS VL: DIVMTQSPSSLAVSAGEKVTMSCKSSQSLLGRGDLGRLKKQKDWYQQKPGQSPRLLIYWASTRESGVPDRFTGSGSGTDFTLTISSVQAEDLAVYYCKQSYNLLSFGAGTKLELKR	2	no binding (tested: supernatant at 1/10 dilution)	no binding (tested: supernatant at 1/10 dilution)		no binding (tested: supernatant at 1/10 dilution)		1	
C6 VH / RGD3-7 Vk murine IgG (antibody, V domains shown, Murine IgG, supernatant of 293 cells; CDRL1 swap into the C6D4 murine IgG vector, VH not altered; also called C6RGD3-7) VH: QIQLLQSGPELKKPGETVKISCKASGYTFTDYSMHWVKQAPGKGLKWVARINTETGEPTFADDFRGRFAVSLETSASTAYLQINNLKNEDTATYFCAIFYYGRDSWGQGTTLTVSS VL: DIVMTQSPSSLAVSAGEKVTMSCKSSQSLLGRGDLGRLNALAWYQQKPGQSPRLLIYWASTRESGVPDRFTGSGSGTDFTLTISSVQAEDLAVYYCKQSYNLLSFGAGTKLELKR	2	no binding (tested: supernatant at 1/10 dilution)			no binding (tested: supernatant at 1/10 dilution)		2	4
C6 VH / RGD3-12 Vk murine IgG (antibody, V domains shown, Murine IgG, supernatant of 293 cells; CDRL1 swap into the C6D4 murine IgG vector, VH not altered; also called C6RGD3-12) VH: QIQLLQSGPELKKPGETVKISCKASGYTFTDYSMHWVKQAPGKGLKWVARINTETGEPTFADDFRGRFAVSLETSASTAYLQINNLKNEDTATYFCAIFYYGRDSWGQGTTLTVSS VL: DIVMTQSPSSLAVSAGEKVTMSCKSSQSLLGRGDLGRLKKQKWYQQKPGQSPRLLIYWASTRESGVPDRFTGSGSGTDFTLTISSVQAEDLAVYYCKQSYNLLSFGAGTKLELKR	2	no binding (tested: supernatant at 1/10 dilution)		no binding (tested: supernatant at 1/10 dilution)	no binding (tested: supernatant at 1/10 dilution)			1
C6 VH / RGD3-8 Vk murine IgG (antibody, V domains shown, Murine IgG, supernatant of 293 cells; CDRL1 swap into the C6D4 murine IgG vector, VH not altered; also called C6RGD3-8) VH: QIQLLQSGPELKKPGETVKISCKASGYTFTDYSMHWVKQAPGKGLKWVARINTETGEPTFADDFRGRFAVSLETSASTAYLQINNLKNEDTATYFCAIFYYGRDSWGQGTTLTVSS VL: DIVMTQSPSSLAVSAGEKVTMSCKSSQSLLGRGDLGRNALAWYQQKPGQSPRLLIYWASTRESGVPDRFTGSGSGTDFTLTISSVQAEDLAVYYCKQSYNLLSFGAGTKLELKR	3	no binding (tested: supernatant at 1/10 dilution)			no binding (tested: supernatant at 1/10 dilution)		3	3
C6 VH / RGD3-1 Vk murine IgG (antibody, V domains shown, Murine IgG, supernatant of 293 cells; CDRL1 swap into the C6D4 murine IgG vector, VH not altered; also called C6RGD3-1) VH: QIQLLQSGPELKKPGETVKISCKASGYTFTDYSMHWVKQAPGKGLKWVARINTETGEPTFADDFRGRFAVSLETSASTAYLQINNLKNEDTATYFCAIFYYGRDSWGQGTTLTVSS VL: DIVMTQSPSSLAVSAGEKVTMSCKSSQSLLGRGDLGRLKKQKDHNALAWYQQKPGQSPRLLIYWASTRESGVPDRFTGSGSGTDFTLTISSVQAEDLAVYYCKQSYNLLSFGAGTKLELKR	4	no binding (tested: supernatant at 1/10 dilution)	no binding (tested: supernatant at 1/10 dilution)		no binding (tested: supernatant at 1/10 dilution)		1	
C6 VH / RGD3-2 Vk murine IgG (antibody, V domains shown, Murine IgG, supernatant of 293 cells; CDRL1 swap into the C6D4 murine IgG vector, VH not altered; also called C6RGD3-2) VH: QIQLLQSGPELKKPGETVKISCKASGYTFTDYSMHWVKQAPGKGLKWVARINTETGEPTFADDFRGRFAVSLETSASTAYLQINNLKNEDTATYFCAIFYYGRDSWGQGTTLTVSS VL: DIVMTQSPSSLAVSAGEKVTMSCKSSQSLLGRGDLGRLKKQKDNALAWYQQKPGQSPRLLIYWASTRESGVPDRFTGSGSGTDFTLTISSVQAEDLAVYYCKQSYNLLSFGAGTKLELKR	4	no binding (tested: supernatant at 1/10 dilution)	no binding (tested: supernatant at 1/10 dilution)		no binding (tested: supernatant at 1/10 dilution)		4	
